Source: the supplement of paper PMC9170038

Experiments:
MS2 coat protein [1] = experiment: apparent KD of MS2 coat protein, switch OFF state (with FMN for OFF switches, without FMN for ON switches); designed switch direction (-1 OFF switch, 1 ON switch): -1; higher = weaker reporter binding; conditions: FMN input: 0 or 200 uM; Eterna round: R93 (includes R88 designs)
How it was run: (§1)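 Apparent KD per design is the median of normalised cluster binding-curve fits. Designed RNA switches transcribed on-chip from Illumina sequencing clusters were titrated with SNAP-549-labelled MS2 coat protein in twofold steps from 0.7 or 1.5 nM to 3 µM, with 0.8–1.5 h down to 10–20 min per step. Buffer: 100 mM Tris-HCl pH 7.5, 80 mM KCl, 4 mM MgCl2, without or with constant ligand.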

MS2 coat protein [2] = experiment: apparent KD of MS2 coat protein, switch ON state; designed switch direction (-1 OFF switch, 1 ON switch): -1; higher = weaker reporter binding; conditions: FMN input: 0 or 200 uM; Eterna round: R93 (includes R88 designs)
How it was run: as §1

| Sequence | apparent KD of MS2 coat protein (MS2 coat protein [1]) [nM] | apparent KD of MS2 coat protein (MS2 coat protein [2]) [nM] |
| --- | --- | --- |
| AGUCAUACAGGAUAUACAUGAGGAUCACCCAUGUAUAUCCAAAAAAAAAAAAAAACAUGUAGAAGGGUAUGACA [EX3 207: Super Stable 7] | 7.41 | 10.8 |
| AGUCAUACAGGAUAUACAUGAGGAUCACCCAUGUAUAUCCAAAAAAAGUGAUCCUCAUGUAGAAGGGUAUGACA [EX3 203: Super Stable 3] | 8.92 | 12 |
| AGUCAUACAGGAUAUACAUGAGGAUCACCCAUGUUUAUCCUAAAAUAAAAAAAAACAUGUAGAAGGGUAUGACA [EX3 215: Super Stable 15] | 14.1 | 15.1 |
| AGUCGGCGAGGAUAUACAUGAGGAUCACCCAUGUGAGAGAAAAAAGUGAGCAAGAAAAGUAGAAGGCGCUGACA [JL Lego Mod 2] | 154 | 54.2 |
| AGUCGGCGAGGAUAUACAUGAGGAUCACCCAUGUGAGAGAUAAAAGUGAGUUAGACAAGUAGAAGGCGCUGACA [JL Lego Mod 9] | 480 | 44.3 |
| AGUCUGAGAGGAUAUACAUGGAAAAAAAAAGUAAGAUCCCUACAUGAGGAUCACCCAUGUAGAAGGCUCUGACA [Ex2 Design 144: Sub-opt 8] | 22.7 | 41.7 |
| AGUUGGCGAGGAUAUACAUGAGGAUCACCCAUGUAAAAUAAAUAAAAAAUAGGGAAAAGUAGAAGGCGCUGACA [73%, Moding Norbert Elias, 13] | 96.3 | 48.4 |
| AGUUGGCGAGGAUAUACAUGAGGAUCACCCAUGUGAGAGAAAAAAAAGAGAAAAAAAAGUAGAAGGCGCUGACA [Mat - Exclusion 3 - Lego mod - D42] | 130 | 42.6 |
| AGUUGGCGAGGAUAUACAUGAGGAUCACCCAUGUGAGAGAAAAAAGUGAGAAAGAAAAGUAGAAGGCGCUGACC [salish99-ex3-07] | 103 | 58.3 |
| AGUUGGCGAGGAUAUACAUGAGGAUCACCCAUGUGAGAGAAAAAAGUGGAAAAGAAAAGUAGAAGGCGCUGACA [Mat - Exclusion 3 - Lego mod - D90] | 119 | 39.4 |
| AUAAAACAUGAGGAUCACCCAUGUCAGGAUAUACGAUAUUAAAUUUAAUAUAUUUAUAGUAGAAGGGACAAAUA [High Five] | 37.1 | 31.6 |
| AUAAAACAUGAGGAUCACCCAUGUGAGGAUAUCCAAAAAGAAAGAAAAAAAAAAAAAAGGAGAAGGCACAAUAA [Amethyst 46] | 46.7 | 67.6 |
| AUAAAACAUGAGGAUCACCCAUGUGAGGAUAUGCGAAACAAACAAACAAACAAACAAAGCAGAAGGCACAAUAA [Amethyst 9] | 24.6 | 22.6 |
| AUAAAACAUGAGGAUCACCCAUGUGAGGAUAUGCGAAAGAAAGAAAGAAAGAAAGAAAGCAGAAGGCACAAUAA [Amethyst 42] | 32.6 | 30.1 |
| AUAAACGGAGGAUAUACAUGAGGAUCACCCAUGUAAAUAAAUAAAAGUUCCUCAAUAAGUAGAAGGUCGAAUAA [JR_Exc003_Sub011] | 13 | 12.8 |
| AUAAAGCGAGGAUAUACAUGAGGAUCACCCAUGUAAAUAAAUAGGAGAGCCACAAUAAGUAGAAGGUGUAAUAA [JR_Exc003_Sub009] | 73.3 | 62.6 |
| AUAAAGUCAGGAUAUGUAAGAAUAACGAAAGUUAUAAAGAAACAGAAGGGACAUGAGGAUCACCCAUGUAAAAU [Ex 4 #3] | 31 | 43.1 |
